The record followed here is PMC9605926, “Safety of [^177Lu]Lu-NeoB treatment: a preclinical study characterizing absorbed dose and acute, early, and late organ toxicity” (European Journal of Nuclear Medicine and Molecular Imaging, 2022).

Series [1] in a line: Biodistribution of [177Lu]Lu-NeoB in healthy Balb/c mice, single i.v. injection, organ uptake by gamma counter. The following applies: male, mouse, pancreas, iv, total radioactivity, 1 h p.i., read-out: Pancreatic uptake. In kind it is in vivo. How it is done:
Both the biodistribution and the radiotoxicity of [^177Lu]Lu-NeoB were studied after administration of 3 different dosages of the radioligand: 40 MBq/400 pmol [^177Lu]Lu-NeoB, 80 MBq/800 pmol [^177Lu]Lu-NeoB, and 120 MBq/1200 pmol [^177Lu]Lu-NeoB. The different dosages were acquired by diluting the stock [^177Lu]Lu-NeoB solution with PBS + kolliphor HS 15 (1 mg/mL). [^177Lu]Lu-NeoB was administered intravenously (tail) to conscious animals in a total volume of 200 µL.
Each dosage of [^177Lu]Lu-NeoB was injected in N = 15 healthy male animals. At 5 different time points post injection (p.i.) (t = 1, 4, 24, 48, and 96 h), 3 animals per dosage group were sacrificed, after which blood and organs were collected and measured to determine radioactivity uptake.
Since in the radiotoxicity studies animals received 3 injections of the radioligand at 1-week intervals, an additional group of 3 male animals were injected twice with 120 MBq/1200 pmol [^177Lu]Lu-NeoB at a 7 days (168 h) interval. […] In addition, to determine the amount of radioactivity remaining in the blood and organs right before a second injection, 3 additional male animals were injected with 40 MBq/400 pmol [^177Lu]Lu-NeoB and the biodistribution was determined at t = 168 h. […]
In the biodistribution study, the adrenal glands, brain, intestines, heart, kidneys, liver, lungs, mammary fat pad, pancreas, muscle, spleen, stomach, prostate gland (M), testes (M), ovaries (F), and urinary bladder were collected, weighed, and measured for radioactivity uptake using a gamma counter (1480 WIZARD automatic γ counter; PerkinElmer). To calculate the percentage injected activity (%IA), a vial containing 200 µL of a 1:1000 dilution of the injected [^177Lu]Lu-NeoB solutions was also measured in the gamma counter. The %IA of all organs and tumor was corrected for the percentage of radioactivity left measured in the tail (injection site).

The next series deals with healthy Balb/c mice. In words: Toxicity study, hematology (same groups as A3). It is filed as in vivo, mouse. The following applies: 5, 11, 19, 30, 43 wk, mean±SD. How it is done:
Five different experimental groups (10 male and 10 female healthy animals per group; n = 100) were included in the radiotoxicity study and treated as follows: control group 1: 3 × vehicle (PBS + kolliphor HS 15 (1 mg/mL)); control group 2: 3 × 1200 pmol [^175Lu]Lu-NeoB; treatment group 1: 3 × 40 MBq/400 pmol [^177Lu]Lu-NeoB; treatment group 2: 3 × 80 MBq/800 pmol [^177Lu]Lu-NeoB; and treatment group 3: 3 × 120 MBq/1200 pmol [^177Lu]Lu-NeoB.
Animals received 3 injections with an interval of 7 days between each injection.
(§1) Throughout the study, the animals were observed daily to check for physical signs of toxicity and signs of discomfort, and animals were weighed 2–3 times per week. Furthermore, at week -1, 5, 11, 19, 30, and 43, blood samples were collected by submandibular puncture from all animals that were in the study at that time point. All blood samples were analyzed for hematological parameters (hematocrit; hemoglobin; red blood cell count; white blood cell count; hemoglobin; mean cell hemoglobin concentration; mean cell volume; platelet count) on the scilVet abc + counter (Covetrus).

Series [2] is described as follows: Toxicity study, body weight (same groups as A3). In kind it is in vivo, mouse. On the procedure:
as §1
Statistical analysis was performed using GraphPad PRISM software (version 5). Significance levels were set at 5%. A simple binary logistic regression analysis was performed to determine a dose–effect relation between the absorbed dose and the histopathological findings in the kidneys using the log-likelihood ratio test as a significance indicator. The weight gain over time of control group 2 and treatment groups 1, 2, and 3 was compared to control group 1 by performing a two-way multiple comparison analysis of variance (ANOVA) with a Bonferroni correction. Significant outliers in the blood values set were detected with the Grubbs’ test and excluded from the data set. At a given time point, the measurements of all study groups were compared by performing a one-way ANOVA and in case of significance a Tukey test to correct for multiple comparisons. All data are represented as mean ± standard deviation (SD).

Several values for one entry are separate records, joined by “and”; a condition that tells them apart may be missing. Identical values can stand only once. Like-named read-outs stand apart in the source and are kept apart here.

With `CC(C)CC(CC(C)C)NC(=O)[C@H](Cc1cnc[nH]1)NC(=O)CNC(=O)[C@@H](NC(=O)[C@H](C)NC(=O)[C@H](Cc1c[nH]c2ccccc12)NC(=O)[C@H](CCC(N)=O)NC(=O)[C@@H](Cc1ccccc1)NC(=O)COCC(=O)Nc1ccc(CNC(=O)CN2CCN(CC(=O)O)CCN(CC(=O)O)CCN(CC(=O)O)CC2)cc1)C(C)C` [[^177Lu]Lu-NeoB, metal not drawn], the tissue uptake at 1 h was determined as 8.27 ± 0.8 %ID/g in series [1] (40 MBq/400 pmol), 4.05 ± 0.4 %ID/g in series [1] (80 MBq/800 pmol) and 1.79 ± 0.2 %ID/g in series [1] (120 MBq/1200 pmol). Besides, the WBC is 6.20 ± 2.24 103/mm3 and 7.60 ± 3.77 103/mm3 and 6.80 ± 1.64 103/mm3 and 9.70 ± 2.96 103/mm3 and 7.20 ± 3.97 103/mm3 with healthy Balb/c mice (female, treatment group 1); 9.10 ± 3.17 103/mm3 and 5.89 ± 2.56 103/mm3 and 7.97 ± 2.09 103/mm3 and 6.74 ± 1.77 103/mm3 and 8.98 ± 1.67 103/mm3 in the series with healthy Balb/c mice (female, treatment group 2); 8.08 ± 2.38 103/mm3 and 8.53 ± 1.17 103/mm3 and 8.12 ± 1.98 103/mm3 and 9.77 ± 2.82 103/mm3 and 7.53 ± 0.83 103/mm3 in the series on healthy Balb/c mice (male, treatment group 1); 7.30 ± 2.24 103/mm3 and 6.65 ± 2.80 103/mm3 and 9.61 ± 1.52 103/mm3 and 8.68 ± 0.34 103/mm3 and 11.13 ± 3.50 103/mm3 in the series on healthy Balb/c mice (male, treatment group 2). In addition, the “Weight gain versus control group 1” value in series [2] (female treatment group 2, by the end of the study) is on record as “significantly higher weight gain”. Also, the “Weight gain versus control groups” value in series [2] (male treatment group 2, first half of the study) is given as “significantly less pronounced weight gain”; in series [2] (male treatment group 3, first half of the study) it was “significantly less pronounced weight gain”.
